{"source": "paper PMC5715112", "about": "(2017)", "parents": {"B1": {"name": "VH59 fused to the VP16 activation domain (pEF-VP16, CHO cells) / GAL4 DNA binding domain (DBD)-LEDGF IBD fusion (pM1, CHO cells) [not stated] (parent complex)", "chain 1": "EVQLLESGGGLVQPGGSLRLSCAASGFTFSTFSMNWVRQAPGKGLEWVSYISRTSKTIYYADSVKGRFTISRDNSKNTLYLQMNSLRAEDTAVYYCARGGWALGDEIPSSFLEFDYWGQGTLVTVS", "chain 2": "ETSMDSRLQRIHAEIKNSLKIDNLDVNRCIEALDELASLQVTMQQAQKHTEMITTLKKIRRFKVSQVIMEKSTMLYNKFKNMFLVGE"}}, "data": [{"variants_of": "B1", "assay": "mammalian two-hybrid luciferase reporter assay in CHO cells; 48 h after transfection; Firefly/Renilla luciferase; n = 3; read off a plot", "values": [{"variant": "chain 1 S110A", "response": "~0.04"}, {"variant": "chain 1 P108A", "response": "~0.04"}, {"variant": "chain 1 S109A", "response": "~0.46"}, {"variant": "chain 1 F111A", "response": "~0.04"}, {"variant": "chain 1 L112A", "response": "~0.05"}]}, {"variants_of": "B1", "assay": "mammalian two-hybrid luciferase reporter assay in CHO cells; 48 h after transfection; Firefly/Renilla luciferase; n = 3; read off a plot", "remark": "another data set of the same source", "values": [{"variant": "chain 1 L45A", "response": "~1.2"}, {"variant": "chain 1 Y95A", "response": "~0.04"}, {"variant": "chain 1 D115A", "response": "~0.04"}, {"variant": "chain 1 W117A", "response": "~0.04"}, {"variant": "chain 1 Y116A", "response": "~0.92"}]}, {"variants_of": "B1", "assay": "mammalian two-hybrid luciferase reporter assay in CHO cells; 48 h after transfection; Firefly luciferase normalised to Renilla; read off a plot", "values": [{"variant": "chain 2 K63A", "response": "~0.35"}, {"variant": "chain 2 V64A", "response": "~0.12"}, {"variant": "chain 2 F62A", "response": "~0.05"}, {"variant": "chain 2 K58A", "response": "~0.09"}, {"variant": "chain 2 L19A", "response": "~0.08"}, {"variant": "chain 2 R61A", "response": "~2"}, {"variant": "chain 2 I21A", "response": "~0.05"}, {"variant": "chain 2 K20A", "response": "~0.71"}, {"variant": "chain 2 L24A", "response": "~0.02"}, {"variant": "chain 2 D22A", "response": "~0.79"}]}]}
